From the Immune Epitope Database (IEDB)
Each block holds one sequence with its values, some of them ahead of it.

Columns and labels:
[1] = biological target: HLA-B*18:01; test: IEDB peptide-MHC binding, purified MHC/competitive/fluorescence; ≥ and ≤ were set here for values at or beyond the usual limits of such assays; conditions: source organism: Rattus norvegicus
[2] = biological target: HLA-A*01:01; test: as above; conditions: source organism: Rattus norvegicus
[3] = biological target: HLA-B*58:01; test: as above; conditions: source organism: Rattus norvegicus
[4] = biological target: HLA-A*29:02; test: as above; conditions: source organism: Rattus norvegicus
[5] = biological target: HLA-B*53:01; test: as above; conditions: source organism: Rattus norvegicus
[6] = biological target: HLA-A*24:02; test: as above; conditions: source organism: Rattus norvegicus
[7] = biological target: HLA-B*07:02; test: as above; conditions: source organism: Rattus norvegicus
[8] = biological target: HLA-B*08:01; test: as above; conditions: source organism: Rattus norvegicus
[9] = biological target: HLA-B*40:02; test: as above; conditions: source organism: Rattus norvegicus
[10] = biological target: HLA-A*11:01; test: as above; conditions: source organism: Rattus norvegicus
[11] = biological target: HLA-A*25:01; test: as above; conditions: source organism: Rattus norvegicus
[12] = biological target: HLA-B*14:02; test: as above; conditions: source organism: Rattus norvegicus
[13] = biological target: HLA-B*37:01; test: as above; conditions: source organism: Rattus norvegicus
[14] = biological target: HLA-A*03:01; test: as above; conditions: source organism: Rattus norvegicus
[15] = biological target: HLA-B*51:01; test: as above; conditions: source organism: Rattus norvegicus
[16] = biological target: HLA-B*35:01; test: as above; conditions: source organism: Rattus norvegicus
[17] = biological target: HLA-A*02:01; test: as above; conditions: source organism: Rattus norvegicus
[18] = biological target: HLA-A*68:02; test: as above; conditions: source organism: Rattus norvegicus
[19] = biological target: HLA-A*31:01; test: as above; conditions: source organism: Rattus norvegicus
[20] = biological target: HLA-B*44:03; test: as above; conditions: source organism: Rattus norvegicus
[21] = biological target: HLA-A*30:02; test: IEDB peptide-MHC binding, purified MHC/competitive/fluorescence; filed as Kd, often an IC50 or EC50 that approximates it; ≥ and ≤ were set here for values at or beyond the usual limits of such assays; conditions: source organism: Entamoeba dispar SAW760
[22] = biological target: HLA-A*01:01; test: as above; conditions: source organism: Entamoeba dispar SAW760
[23] = biological target: HLA-B*44:02; test: as above; conditions: source organism: Entamoeba dispar SAW760
[24] = biological target: HLA-A*66:01; test: as above; conditions: source organism: Entamoeba dispar SAW760
[25] = biological target: HLA-B*58:01; test: as above; conditions: source organism: Entamoeba dispar SAW760
[26] = biological target: HLA-B*53:01; test: as above; conditions: source organism: Entamoeba dispar SAW760
[27] = biological target: HLA-B*27:05; test: as above; conditions: source organism: Entamoeba dispar SAW760
[28] = biological target: HLA-B*07:02; test: as above; conditions: source organism: Entamoeba dispar SAW760
[29] = biological target: HLA-B*08:01; test: as above; conditions: source organism: Entamoeba dispar SAW760
[30] = biological target: HLA-A*11:01; test: as above; conditions: source organism: Entamoeba dispar SAW760
[31] = biological target: HLA-B*14:02; test: as above; conditions: source organism: Entamoeba dispar SAW760
[32] = biological target: HLA-A*30:01; test: as above; conditions: source organism: Entamoeba dispar SAW760
[33] = biological target: HLA-B*15:01; test: IEDB peptide-MHC binding, purified MHC/direct/fluorescence; filed as Kd, often an IC50 or EC50 that approximates it; ≥ and ≤ were set here for values at or beyond the usual limits of such assays; conditions: source organism: Campylobacter jejuni
[34] = biological target: HLA-B*18:01; test: as above; conditions: source organism: Campylobacter jejuni
[35] = biological target: HLA-A*02:19; test: as above; conditions: source organism: Campylobacter jejuni
[36] = biological target: HLA-B*57:01; test: as above; conditions: source organism: Campylobacter jejuni
[37] = biological target: HLA-B*27:03; test: as above; conditions: source organism: Campylobacter jejuni
[38] = biological target: HLA-B*46:01; test: as above; conditions: source organism: Campylobacter jejuni
[39] = biological target: HLA-A*80:01; test: as above; conditions: source organism: Campylobacter jejuni
[40] = biological target: HLA-A*02:03; test: as above; conditions: source organism: Campylobacter jejuni
[41] = biological target: HLA-A*02:12; test: as above; conditions: source organism: Campylobacter jejuni
[42] = biological target: HLA-A*26:01; test: as above; conditions: source organism: Campylobacter jejuni
[43] = biological target: HLA-A*25:01; test: as above; conditions: source organism: Campylobacter jejuni
[44] = biological target: HLA-A*03:01; test: as above; conditions: source organism: Campylobacter jejuni
[45] = biological target: HLA-A*02:11; test: as above; conditions: source organism: Campylobacter jejuni
[46] = biological target: HLA-B*51:01; test: as above; conditions: source organism: Campylobacter jejuni
[47] = biological target: HLA-C*04:01; test: as above; conditions: source organism: Campylobacter jejuni
[48] = biological target: HLA-B*39:01; test: as above; conditions: source organism: Campylobacter jejuni

IC50 [1]: ≥ 20 µM | IC50 [2]: ≥ 20 µM | IC50 [3]: ≥ 20 µM | IC50 [4]: 17.8 µM | IC50 [5]: ≥ 20 µM | IC50 [6]: 6.08 µM | IC50 [7]: ≥ 20 µM | IC50 [8]: ≥ 20 µM | IC50 [9]: ≥ 20 µM | IC50 [10]: ≥ 20 µM | IC50 [11]: ≥ 20 µM | IC50 [12]: ≥ 20 µM | IC50 [13]: ≥ 20 µM | IC50 [14]: ≥ 20 µM | IC50 [15]: ≥ 20 µM | IC50 [16]: ≥ 20 µM | IC50 [17]: 0.0187 µM | IC50 [18]: 0.914 µM | IC50 [19]: ≥ 20 µM | IC50 [20]: ≥ 20 µM
Sequence: SLLERGQQLGV

Sequence: SQYDPKELL
Kd [21]: ≥ 5 µM | Kd [22]: ≥ 5 µM | Kd [23]: ≥ 5 µM | Kd [24]: ≥ 5 µM | Kd [25]: ≥ 5 µM | Kd [26]: ≥ 5 µM | Kd [27]: ≥ 5 µM | Kd [28]: ≥ 5 µM | Kd [29]: ≥ 5 µM | Kd [30]: ≥ 5 µM | Kd [31]: ≥ 5 µM | Kd [32]: ≥ 5 µM

Sequence: YWDQVTFFY
Kd [33]: ≥ 20 µM | Kd [34]: ≥ 20 µM | Kd [35]: ≥ 20 µM | Kd [36]: ≥ 20 µM | Kd [37]: ≥ 20 µM | Kd [38]: ≥ 20 µM | Kd [39]: 0.056 µM | Kd [40]: ≥ 20 µM | Kd [41]: ≥ 20 µM | Kd [42]: ≥ 20 µM | Kd [43]: ≥ 20 µM | Kd [44]: ≥ 20 µM | Kd [45]: ≥ 20 µM | Kd [46]: ≥ 20 µM | Kd [47]: ≥ 20 µM | Kd [48]: ≥ 20 µM
